The target of the first test is HLA-B*54:01. The test can be described thus: IEDB peptide-MHC binding, purified MHC/competitive/radioactivity; ≥ and ≤ were set here for values at or beyond the usual limits of such assays. As to conditions: source organism: Homo sapiens.
In general, IC50 refers to the concentration at which inhibition is half-maximal. Take FPKETFEGP: the IC50 came out at 16.4 nM. Take FVEILIPVA: the concentration for half-maximal inhibition (IC50) worked out at 12.2 nM. Regarding SAPVNFISA, the half-maximal inhibitory concentration (IC50) was determined as 16.6 nM.

For YPVYQPVGP, the IC50 amounted to 1.7 nM.

The target in a further test is HLA-B*51:01. The description is as above. As to conditions: source organism: Homo sapiens.
Regarding DAPLNIRSI, the IC50 was determined as 6.5 nM. DAYPQRIKF: the IC50 was 31 nM. The same measure, in the same setting: to DGLLRVLTV belongs 0.2 nM; to DGLRDLPSI, 12.6 nM; to DGYVVKETI, 13.4 nM.

IIYPTPKVV: the half-inhibitory concentration (IC50) was found to be 38 nM.

Take TPESKIRFV: the IC50 came to 84.8 nM. Turning to VALLVGEKV, the IC50 was 144 nM. For the sequence VPPLVPKVL, the IC50 worked out at 56.3 nM. Regarding YIIEREPLI, the half-inhibitory concentration (IC50) came to 1790 nM.

Another test has as its target HLA-A*29:02. The test is described as above. As to conditions: source organism: Homo sapiens.
FYPELKLAY: the 50% inhibitory concentration (IC50) amounted to 0.2 nM. GLPDLVAKY: the half-maximal inhibitory concentration (IC50) came to 29.7 nM. The same measure, in the same setting: to HFLDRHLVF belongs 1.6 nM. For the sequence LPLDIQIFY, the half-maximal inhibitory concentration (IC50) worked out at 4.6 nM. Still for that read-out and setting: to YLPALKVEY belongs 2.6 nM.

Another test has as its target HLA-A*01:01. The description is as above. As to conditions: source organism: Homo sapiens.
As for ATDGKVLLW, the IC50 came out at 191 nM. Consider DTEFPNFKY, for which the 50% inhibitory concentration (IC50) was 80.8 nM.

Turning to FLWPEAFLY, the IC50 is 1.3 nM. KLDLLEQEY: the concentration for half-maximal inhibition (IC50) was determined as 70.6 nM. For the sequence YVPEHWEYY, the IC50 is 11.1 nM.
